The record followed here is US20110105397A1, “METHOD FOR TREATING HEART FAILURE WITH STRESSCOPIN-LIKE PEPTIDES” (priority 2009, published 2011).

The chains are these.
T1: human corticotrophin releasing hormone receptor type 2 (CRHR2) (human, UniProt Q13324 1-411)
T1 sequence (looked up): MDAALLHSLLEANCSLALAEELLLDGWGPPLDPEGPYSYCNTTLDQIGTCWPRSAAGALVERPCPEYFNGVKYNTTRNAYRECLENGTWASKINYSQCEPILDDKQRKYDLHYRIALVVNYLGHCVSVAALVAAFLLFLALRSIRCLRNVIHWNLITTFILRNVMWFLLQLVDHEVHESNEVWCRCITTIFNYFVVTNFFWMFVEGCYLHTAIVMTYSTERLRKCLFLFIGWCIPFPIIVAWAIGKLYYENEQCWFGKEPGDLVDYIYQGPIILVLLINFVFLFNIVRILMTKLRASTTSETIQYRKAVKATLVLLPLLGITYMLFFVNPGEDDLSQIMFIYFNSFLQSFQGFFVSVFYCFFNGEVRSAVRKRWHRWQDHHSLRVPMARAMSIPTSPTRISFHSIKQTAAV

Where no end group is shown, it is not given here.

This assay addresses T1, human corticotrophin releasing hormone …. Put plainly: cell-based or functional assay.
For the molecule TKFTLSLDVPTNIMNLLFNIAKAKNCRAQAAANAHLMAQI-NH2 [Cys-variant stresscopin-like peptide SEQ ID NO: 27], the “Log DR” value is 0.76 log10 and the pA50 is 8.76 -log10(M).
For TKFTLSLDVPTNIMNLLFNICKAKNLRAQAAANAHLMAQI-NH2 [Cys-variant stresscopin-like peptide SEQ ID NO: 22], the “Log DR” value is 0.52 log10 and the pA50 is 9.17 -log10(M).
Consider TKFTLSLDVPTNIMNLLFNIAKAKNLRAQAAANAHCMAQI-NH2 [Cys-variant stresscopin-like peptide SEQ ID NO: 37], for which the “Log DR” value is 1.05 log10 and the pA50 is 8.58 -log10(M).
For the molecule TKFTLSLDVPTNIMNLLFNCAKAKNLRAQAAANAHLMAQI-NH2 [Cys-variant stresscopin-like peptide SEQ ID NO: 21], the “Log DR” value stood at 0.77 log10 and the pA50 is 8.75 -log10(M).
Regarding TKFTLSLDVPTNIMNLLFNIAKAKNLRAQAAANCHLMAQI-NH2 [Cys-variant stresscopin-like peptide SEQ ID NO: 35], the “Log DR” value worked out at 0.7 log10 and the pA50 was 8.93 -log10(M).
Taken in the same sequence, the figures for TKFTLSLDVPTNIMNLLFNIAKACNLRAQAAANAHLMAQI-NH2 [Cys-variant stresscopin-like peptide SEQ ID NO: 25] were 0.35 log10 and 9.17 -log10(M).
Taken in the same sequence, the figures for TKFTLSLDVPTNIMNLLFCIAKAKNLRAQAAANAHLMAQI-NH2 [Cys-variant stresscopin-like peptide SEQ ID NO: 20] were 0.52 log10 and 9 -log10(M).
With TKFTLSLDVPTNIMNLLFNIAKAKNLRACAAANAHLMAQI-NH2 [Cys-variant stresscopin-like peptide SEQ ID NO: 30], the “Log DR” value is 1.28 log10 and the pA50 is 8.4 -log10(M).
Turning to TKFTLSLDVPTNIMNLLFNIAKAKNLRAQAAANACLMAQI-NH2 [Cys-variant stresscopin-like peptide SEQ ID NO: 36], the “Log DR” value was 0.42 log10 and the pA50 is 9.1 -log10(M).
Taken in the same sequence, the figures for TKFTLSLDVPTNIMNLLFNIAKAKNLRCQAAANAHLMAQI-NH2 [Cys-variant stresscopin-like peptide SEQ ID NO: 29] were 0 log10 and 9.47 -log10(M).
As for TKFTLSLDVPTNIMNLLFNIAKAKNLRAQACANAHLMAQI-NH2 [Cys-variant stresscopin-like peptide SEQ ID NO: 32], the “Log DR” value came to 0.11 log10 and the pA50 is 9.41 -log10(M).
Turning to TKFTLSLDVPTNIMNLLFNIAKAKNLRAQAAANAHLMCQI-NH2 [Cys-variant stresscopin-like peptide SEQ ID NO: 39], the “Log DR” value was determined as 0.41 log10 and the pA50 is 9.21 -log10(M).
For the molecule TKFTLSLDVPTNIMNLLCNIAKAKNLRAQAAANAHLMAQI-NH2 [Cys-variant stresscopin-like peptide SEQ ID NO: 19], the “Log DR” value is 1.67 log10 and the pA50 is 8.01 -log10(M).
Take TKFTLSLDVPTNIMNLLFNIAKAKNLRAQCAANAHLMAQI-NH2 [Cys-variant stresscopin-like peptide SEQ ID NO: 31]: the “Log DR” value is 1.61 log10 and the pA50 is 8.02 -log10(M).
With TKFTLSLDVPTNIMNLLFNIAKAKNLRAQAACNAHLMAQI-NH2 [Cys-variant stresscopin-like peptide SEQ ID NO: 33], the “Log DR” value stood at 0.45 log10 and the pA50 was 9.07 -log10(M).
With TKFTLSLDVPTNIMNLLFNIAKAKCLRAQAAANAHLMAQI-NH2 [Cys-variant stresscopin-like peptide SEQ ID NO: 26], the “Log DR” value was 0.08 log10 and the pA50 was 9.44 -log10(M).
TKFTLSLDVPTNIMNLLFNIAKCKNLRAQAAANAHLMAQI-NH2 [Cys-variant stresscopin-like peptide SEQ ID NO: 24]: the “Log DR” value stood at 0.74 log10 and the pA50 is 8.94 -log10(M).
The like results for TKFTLSLDVPTNIMNLLFNIAKAKNLRAQAAANAHLCAQI-NH2 [Cys-variant stresscopin-like peptide SEQ ID NO: 38] were, in that order, greater than 2.95 log10 and ~6.67 -log10(M).
The like results for TKFTLSLDVPTNIMNLCFNIAKAKNLRAQAAANAHLMAQI (NES-PEG (about 20 kDa) on Cys 17; C-terminal amide (-NH2)) [Pegylated Cys-variant stresscopin-like peptide with NES linker and PEG about 20 kDa SEQ ID NO: 71] were, in that order, roughly 2.26 log10 and ~7.35 -log10(M).
In the case of TKFTLSLDVPTNIMNLLFNCAKAKNLRAQAAANAHLMAQI (NES-PEG (about 20 kDa) on Cys 20; C-terminal amide (-NH2)) [Pegylated Cys-variant stresscopin-like peptide with NES linker and PEG about 20 kDa SEQ ID NO: 74], the “Log DR” value is roughly 2.28 log10 and the pA50 was ~7.33 -log10(M).
The like results for TKFTLSLDVPTNIMNLLFNIAKAKNLRAQAAANAHCMAQI (NES-PEG (about 20 kDa) on Cys 36; C-terminal amide (-NH2)) [Pegylated Cys-variant stresscopin-like peptide with NES linker and PEG about 20 kDa SEQ ID NO: 90] were, in that order, roughly 2.17 log10 and ~7.49 -log10(M).
For TKFTLSLDVPTNIMNLLFNIAKAKNLRAQAAANAHLCAQI (NES-PEG (about 20 kDa) on Cys 37; C-terminal amide (-NH2)) [Pegylated Cys-variant stresscopin-like peptide with NES linker and PEG about 20 kDa SEQ ID NO: 91], the “Log DR” value is greater than 3.43 log10 and the pA50 was ~6.23 -log10(M).
Consider TKFTLSLDVPTNIMNLLFNICKAKNLRAQAAANAHLMAQI (NES-PEG (about 20 kDa) on Cys 21; C-terminal amide (-NH2)) [Pegylated Cys-variant stresscopin-like peptide with NES linker and PEG about 20 kDa SEQ ID NO: 75], for which the “Log DR” value was found to be 1.3 log10 and the pA50 is 8.24 -log10(M).
The like results for TKFTLSLDVPTNIMNLLFNIAKCKNLRAQAAANAHLMAQI (NES-PEG (about 20 kDa) on Cys 23; C-terminal amide (-NH2)) [Pegylated Cys-variant stresscopin-like peptide with NES linker and PEG about 20 kDa SEQ ID NO: 77] were, in that order, 1.27 log10 and 8.27 -log10(M).
On to TKFTLSLDVPTNIMNLLFNIAKAKCLRAQAAANAHLMAQI (NES-PEG (about 20 kDa) on Cys 25; C-terminal amide (-NH2)) [Pegylated Cys-variant stresscopin-like peptide with NES linker and PEG about 20 kDa SEQ ID NO: 79], for which the “Log DR” value was found to be 1.11 log10 and the pA50 was 8.5 -log10(M).
With TKFTLSLDVPTNIMNLLFNIAKAKNLRCQAAANAHLMAQI (NES-PEG (about 20 kDa; MW20000) on Cys 28; C-terminal amide (-NH2)) [Pegylated Cys-variant stresscopin-like peptide with NES linker and PEG about 20 kDa SEQ ID NO: 82], the “Log DR” value is 1.12 log10 and the pA50 was 8.4 -log10(M).
As for TKFTLSLDVPTNIMNLLCNIAKAKNLRAQAAANAHLMAQI (NES-PEG (about 20 kDa) on Cys 18; C-terminal amide (-NH2)) [Pegylated Cys-variant stresscopin-like peptide with NES linker and PEG about 20 kDa SEQ ID NO: 72], the “Log DR” value turned out to be 1.5 log10 and the pA50 is 8.04 -log10(M).
In the case of TKFTLSLDVPTNIMNLLFNIAKAKNLRAQAAANCHLMAQI (NES-PEG (about 20 kDa) on Cys 34; C-terminal amide (-NH2)) [Pegylated Cys-variant stresscopin-like peptide with NES linker and PEG about 20 kDa SEQ ID NO: 88], the “Log DR” value amounted to 1.55 log10 and the pA50 is 8.12 -log10(M).
As to TKFTLSLDVPTNIMNLLFNIACAKNLRAQAAANAHLMAQI (NES-PEG (about 20 kDa) on Cys 22; C-terminal amide (-NH2)) [Pegylated Cys-variant stresscopin-like peptide with NES linker and PEG about 20 kDa SEQ ID NO: 76], the “Log DR” value is 2.7 log10 and the pA50 was 6.84 -log10(M).
For the molecule TKFTLSLDVPTNIMNLLFNIAKACNLRAQAAANAHLMAQI (NES-PEG (about 20 kDa) on Cys 24; C-terminal amide (-NH2)) [Pegylated Cys-variant stresscopin-like peptide with NES linker and PEG about 20 kDa SEQ ID NO: 78], the “Log DR” value is roughly 1.52 log10 and the pA50 is ~7.89 -log10(M).
For the molecule TKFTLSLDVPTNIMNLLFNIAKAKNLRACAAANAHLMAQI (NES-PEG (about 20 kDa) on Cys 29; C-terminal amide (-NH2)) [Pegylated Cys-variant stresscopin-like peptide with NES linker and PEG about 20 kDa SEQ ID NO: 83], the “Log DR” value amounted to 1.63 log10 and the pA50 was 7.91 -log10(M).
For TKFTLSLDVPTNIMNLLFNIAKAKNLRAQAAANACLMAQI (NES-PEG (about 20 kDa) on Cys 35; C-terminal amide (-NH2)) [Pegylated Cys-variant stresscopin-like peptide with NES linker and PEG about 20 kDa SEQ ID NO: 89], the “Log DR” value was 0.98 log10 and the pA50 was 8.48 -log10(M).
In the case of TKFTLSLDVPTNIMNLLFCIAKAKNLRAQAAANAHLMAQI (NES-PEG (about 20 kDa) on Cys 19; C-terminal amide (-NH2)) [Pegylated Cys-variant stresscopin-like peptide with NES linker and PEG about 20 kDa SEQ ID NO: 73], the “Log DR” value is 1.11 log10 and the pA50 is 8.29 -log10(M).
With TKFTLSLDVPTNIMNLLFNIAKAKNLRAQACANAHLMAQI (NES-PEG (about 20 kDa) on Cys 31; C-terminal amide (-NH2)) [Pegylated Cys-variant stresscopin-like peptide with NES linker and PEG about 20 kDa SEQ ID NO: 85], the “Log DR” value turned out to be 0.89 log10 and the pA50 is 8.51 -log10(M).
On to TKFTLSLDVPTNIMNLLFNIAKAKNLCAQAAANAHLMAQI (NES-PEG (about 20 kDa) on Cys 27; C-terminal amide (-NH2)) [Pegylated Cys-variant stresscopin-like peptide with NES linker and PEG about 20 kDa SEQ ID NO: 81], for which the “Log DR” value was 1.82 log10 and the pA50 is 7.83 -log10(M).
Take TKFTLSLDVPTNIMNLLFNIAKAKNCRAQAAANAHLMAQI (NES-PEG (about 20 kDa) on Cys 26; C-terminal amide (-NH2)) [Pegylated Cys-variant stresscopin-like peptide with NES linker and PEG about 20 kDa SEQ ID NO: 80]: the “Log DR” value came to 1.75 log10 and the pA50 was 7.6 -log10(M).
In the case of TKFTLSLDVPTNIMNLLFNIAKAKNLRAQAAACAHLMAQI (NES-PEG (about 20 kDa) on Cys 33; C-terminal amide (-NH2)) [Pegylated Cys-variant stresscopin-like peptide with NES linker and PEG about 20 kDa SEQ ID NO: 87], the “Log DR” value was greater than 3.68 log10 and the pA50 is ~6 -log10(M).
As to TKFTLSLDVPTNIMNLLFNIAKAKNLRAQAACNAHLMAQI (NES-PEG (about 20 kDa) on Cys 32; C-terminal amide (-NH2)) [Pegylated Cys-variant stresscopin-like peptide with NES linker and PEG about 20 kDa SEQ ID NO: 86], the “Log DR” value was found to be 0.82 log10 and the pA50 was 8.79 -log10(M).
TKFTLSLDVPTNIMNLLFNIAKAKNLRAQCAANAHLMAQI (NES-PEG (about 20 kDa) on Cys 30; C-terminal amide (-NH2)) [Pegylated Cys-variant stresscopin-like peptide with NES linker and PEG about 20 kDa SEQ ID NO: 84]: the “Log DR” value was roughly 2.84 log10 and the pA50 is ~6.82 -log10(M).
Take TKFTLSLDVPTNIMNLLFNIAKAKNLCAQAAANAHLMAQI-NH2 [Cys-variant stresscopin-like peptide SEQ ID NO: 28]: the “Log DR” value was determined as 1.61 log10 and the pA50 is 9.36 -log10(M).
Taken in the same sequence, the figures for TKFTLSLDVPTNIMNLLFNIACAKNLRAQAAANAHLMAQI-NH2 [Cys-variant stresscopin-like peptide SEQ ID NO: 23] were 1.13 log10 and 8.55 -log10(M).
Taken in the same sequence, the figures for TKFTLSLDVPTNIMNLLFNIAKAKNLRAQAAACAHLMAQI-NH2 [Cys-variant stresscopin-like peptide SEQ ID NO: 34] were greater than 3.19 log10 and ~6.32 -log10(M).
